Results reported in the DeepSol protein solubility set.

Experiment: soluble on expression in E. coli; label from the status in PepcDB or PDB records

| Sequence | soluble on expression in E. coli |
| --- | --- |
| MGSDKIHHHHHHVILSDWLAARLDRSAAEPVYRQTLRLMQQAILTGQLPPGTKLPSSRTLAQDLGIARNTVLHVYDQLTAEGYVISTTGSGTYVADTRPDTAAVNARKKPVVVSGIETDADAAIETTRRPKRDLGDLSTRGRRLIDTAGVSAKQWGAFMPGVPDVAEFPARTWSRLQARLWKEANPDLLTYAPGGGYRPLRRALSDYLRVARSVNCTPDQIIITTGIHQSIDLAVRLLTDVGDRAWVEEPCYWGARSVLQSSGITLVPVPVDDEGLNPREQDLQQPPRLALVTPSHQYPLGMVMSLARRRTLLEYARQHNVWIIEDDYDSEFRYGSRPLASLQGLDDAGQVIYVGSLGKMLFPGLRIGYMIAPEHLVDTFRTGVAELYREGQLMQQAVMTDFIMDGHLTSHVRRMRALYGERRQILIDAITARFGSELPVMGDEAGLHLVLGLPDHANDRAVTAAAYDAGVIVRPLASYYSGDTPARRGLLLGYACVPNDRIGPAFDTLARVIEQTALKTPTRAA | not soluble |
| MTDRRQYAPATQRNRETIAAVLQEYLPSQGSILEIASGTGEHACFFAPLFSPRWWITSDPDPLCRESIMAWRDHQALANFQSPLDLDVNDQVWPVEREILREPVTSIVAINLIHISPWESCLGLLTGAERILPEGGILYLYGPYRQKGVPTAPSNEAFDQSLQSRNPAWGLRQLEDVIGEAGKRNLHNQAIIPMPANNLSVIFQKGLEHHHHHH | not soluble |
| MYSYADRLRAVELYIRLGKRLNTTIRQLGYPTKNALRGWYREYVQHLDLRTQPVARAPKYSEAQRQAALEHFRTHDRCISGTMRALGYPGRGTLTAWVREAFPEARTSMVGRSWHPGYSEEVRQAGVIGLCSGDESAQQVADRLGVSRPTLYSWKDQLLGHEASSSMKRRKANPKVPEREELERKLEALQRDVRQLQLEHDLLKKANELLKKGLGVDLLILSNREKTQLIDALKEVYRLPELLAQLRIARSSYFYHRARMCLADKYAAVRLSLAEIFEANRRCYGYRRLQASLARKSVIVSEKVVQRLMKQEHLAVARPRRRRFGSYLGEISPAPENLINRDFHADAPNVKWLTDITEFQIPAGKVYLSPIIDCFDGMVISWSIGTQPDAGLVNTMLDAAIGTVANGEERPIIHSDRGAHYRWPGWLTRISEARLVRSMSRKGCSQDNAACEGFFGRLKTELFYPRDWKAITIEQFVAEVDAYIRWYNEKRIKISLGSLSPVEYRQSLGLKLAAALEHHHHHH | soluble |
| MGSDKIHHHHHHMKSAPDWIAHPDTPYLLIDEAKLKSNINYLKQRVESLGSHLRPHLKTLRTLEAAGYLLDSKSAPATVSTLAEAEAYAKAGYTDLLYAVGIAPAKLKRVAALRQQGINLHILLDNITQAQAVVDYAAEFGQDFSVFIEIDSDDHRGGIKPSDSKLLTIAKTLGEHFTGLMTHAGGSYACNTEQGLKNFAKQECDAVRIARNNLETAGIHCAITSVGSTPTAHFGEDFSDISEVRAGVYTTFDLVMKNIGVCDFSHIAMSVVTTVIGHNKEKNWLLTDSGWMALSRDSGTAGQNRDFGYGQVCKIDGSVLDGLCVNSTSQEHGVIELSDAYQLEDFPVGHQLRIMPNHACATAAMHPVYHVLMSDGSHNTWQRITGW | not soluble |
| MSSTKRPASRADEITQELVRMIQLADARRIAKLPTEMELAAQLGISRPVIRESLSRLESLNMVTRRQGSGLYIVAPEKRSPEALVLLEQSAPLSPRSIAEAMSVRAILELETGRLAALNHRQVDLDRMAAEIERLAATGARGLEAAEADEAFHRALSDAAGNVTLSQVLDLFLRLSWRRRVEYFSQPKLGKQSIIEHQEILNAVASGDPDAVSTAIRTHLNSAERFWDSKYVKKKS | not soluble |
| MIIKIGTDRFWVKASNIERWAEILKSLPKKIPCSSKKDIARDYLGYKVDESGRIVNADEVYGLFGAEKDKDSLTIVGCNFIKEIEGGYELTEGAIELVERFKHNEEWEKVLGSQLLKYSIRIRTIAYAMLNGGYLYFEKGYMENFAKAYITLNDKKFYVFSSKPDEMNINSLMKENQSKILGDFWRKELDIGDGEEIEFRGVNKDYPSLGSMSTYLKIPMLLFDYLGWIVESEDGRYVLDKHKIKEDAGIDVYESLVNEADVDDIEILHKLIKEYSDARGFFPIGIVGSILKKKIDSENSMAEEQWIDHYFVTGINKGKFIIKDHEQGQPRHGRGLLGKKDYQLIKLEIRD | not soluble |
| MAHHHHHHMGTLEAQTQGPGSMVTAEAIDQRTFRRVLGQFCTGVTIITTVHEGNPVGFACQSFAALSLDPPLVLFCPTKVSRSWKAIEASGRFCVNILHEKQQHVSARFGSREPDKFAGIDWRPSDLGSPIIDGSLAHIDCTVHDVHDGGDHFVVFGKVHGLSEVPERKPRPLLFYRGEYTGIEPEKNTPAQWRDDLEAFLTATTADTWL | soluble |
| ADLPGKGITVNPVQSTITEETFQTLLVSRALEKLGYTVNKPSEVDYNVGYTSLASGDATFTAVNWTPLHDNMYEAAGGDKKFYREGVFVNGAAQGYLIDKKTADQYKITNIAQLKDPKIAKLFDTNGDGKADLTGCNPGWGCEGAINHQLAAYELTNTVTHNQGNYAAMMADTISRYKEGKPVFYYTWTPYWVSNELKPGKDVVWLQVPFSALPGDKNADTKLPNGANYGFPVSTMHIVANKAWAEKNPAAAKLFAIMQLPVADINAQNAIMHDGKASEGDIQGHVDGWIKAHQQQFDGWVNEALAAQK | soluble |
| MSLGRNEPVIGITPSFDYNENKMYINNIYCEAIILSGGMPVLLPVTEDEGLLSQMVEEFDGFLLSGGPDVDAVHWGEWNYSYNGEISPHRDKMELFIAKEAVAKDKPIFGICRGIQVLNVALGGTLYQDIYSQNKEKRLIKHSQNAPRWYPVHKVMLKAGSKVRNAHGAESIAVNSFHHQAVREPAPDFIVTGTSEDGIIEAIEHKNCKFAVGVQWHPEHMWKRDLSFLNIFKYFVSSCLEGHHHHHH | soluble |
| MENQTKCNISYRRIRIDKKKPPKTALKIKCLFTFSGFQEMLHVDKVDSLQTEKVNIRASGLVEWSCYTFILRLHYDRGTYASFCVARSDSLGCIDLSRDAPIRGTYTEVDQMGLFISIEPTQSIRPGHFFKTYDPKTYYYTLQLLDDSKKIIDEIHLKKHWKHPLVEQINVEQNGLYGTLFKPPGKGPFPAVIFIPGSNGMLESGYAAVLASEGFLTFTFAYFAYKKDLPKLIPDVDIEFFEKPIEYVQNSPYCSGKIGLVGQSFGGLTANYLSTKYHQVSAVVALNCSAAFCRDNAVMKENGKPMETQILDEGMSDFVNQVLRQKPAFRDLYSNLTPTTSIPWARAPKNTAYRIVQCYDDMLVDAVPSIINICGNLRKTGHHVESELVPGGHFLYFPYFPHHGIIYNAQINMLWGFGGECYQHSKSQETTWKKNVEFFKKHLGDVKRIPEWKRESTVTLPVSTKSSKSLQCKL | not soluble |
| MAHHHHHHMQTGPFAAVTRVPDHVRNMILNEIASENIWLFDRGRCEAVTVGDMRSSSFSIPMAESPPAVGCELDNNEHLLLYDLMRVRNGQVMFENDHFSRIRQNCILTAPTACDAANVSEDEDLGKLSTYIEGVRSTTRDFIKCNPWENGDVNLKFVTWVLPSQLSDVSTAERRSELLRTLSYAVYYVTSFFPPEDWYEEGTRYAMLYDAQRHTPNAKILQVPLRERAKALQQTTNAFEVLLVSDNRRHYLVPEGSRSNYLIVSGDESLLCSLEEDILVGITLRVARRAAACARLPPLRHRKLVLGDICLAKSIAMLGTSPGVLPIKEIQVFYDEESKQNFLLAMEDYMQDKDEEIQRAVINVRGRILNDDGLLRLESPSCDTLKRLRAAYEAEALL | not soluble |
| MRKEKIRLEYMLKAGSGNIVWSIISTPSGLETWFADKVIFKDKVFTFYWGKTETRQAEVTNFRVNSFIRFRWLDDEDPKAYFELKMVYNELTSDYMLEVIDWAAPDEVEDTKELWDSEIEKLKRVSGLLEHHHHHH | soluble |
| MSLTPWLSIVGISEEGWLALTPIAQQCILQADILVGSDRHFDLLPSLPGAEQWRWGSPFSATITQILERRGQSICILASGDPMCYGVGSLLAQRLPLTELQILPAPSAFSLACSRLGWALPEVETLSLCGRDPALLNALLYPGAKILALSADRSTPATIAEQLCQQGWGSSRLTVLEHLGGPKERKISEIAEHWSQPTIASLNTVAIECHARDRDLIVPPRLTGLPDAAYHHDGQLTKREVRAITLAALAPLPGQLLWDVGAGCGSIGIEWMRSDRRCRAIAIEQHPQRLQIITQNAIALGVPNLQVVAGSAPATLSGLPQPDAIFIGGGVTAPGVLDQCWQALPMGGRLVVNAVTLESEQVVLAGQQRWGGDLIRVAVQRAEPIGRFLGWKSLAPITQWTVKKTALEHHHHHH | soluble |
| MDANEKKEVIKKRFQEIAMSGGTCCSGGGCCGDSSSSDISRAIGYSEADIEAVPDANMGLGCGNPASIAELKPGDIVLDLGSGAGFDCFLAAQKVGNSGKVIGVDMTPEMVEKVQANARKYGYSNVEFRQGDIEALPVEDSSVDVIISNCVINLAPDKEKVFREAFRVLKLGGRLYISDLVLLDELPEDLKNDRDLLAGCVAGAVLKEEYLKLLKRAGFSVEILAEDPDISKSQYKGLPVESLKLKAWVLEHHHHHH | soluble |
| MGSSHHHHHHSSGRENLYFQGHMMSGHNKWANIKHRKMAQDAKKSKIFTKLIREIIVAAREGGGNIETNPRLRAAVERARAENMPKENIERAIKRGTGELEGVDYQEVIYEGYAPGGVAVYIRALTDNKNRTAQELRHLFNKYGGSLAESGSVSWIFERKGVIEISRDKVKDLEELMMIAIDAGAEDIKDAEDPIQIITAPENLSEVKSKLEEAGYEVEAKVTFIPKNTVKVTGKDAEKVLEFLNALEDMDDVQEVYSNFEMDDKEMEEILSRLEG | soluble |
| MIIYKDIFSNDELLSDAYDAKLVDDVIYEADCAMVNVGGDNIDIGANPSAEGGDDDVEEGAEMVNNVVHSFRLQQTAFDKKSFLTYIKGYMKAVKAKLQETNPEEVPKFEKGAQTYVKKVIGSFKDWEFFTGESMDPDAMVVMLNYREDGTTPFVAIWKHGIVEEKI | soluble |
| MHSEVTPIHHYKKYWAECFGTAPFLPTSREEMDQLGWDSCDVIIVTGDAYVDHPSFGMAIIGRLLEAQGFRVGIIAQPEWQTKDAFMTLGKPNLFFGVTAGNMDSMINRYTADKKIRHDDAYTPNNKGGMRPDRCSLVYSQRCREAYKDVPIVLGGIEASLRRVAHYDYWSDKVRRSILLDAKADILLFGNAERALVEVAHRLANGESINKMVDIRGTAVNLAQVPEHFKIIDSTRIDQPNKPFVPSNPYEVETQCATKGDEKEEAQPITIRPSRHDAKTTAVRLPSFEKLVNDRILYAHASRVLHLETNPYSGRALVQRHGDRELWVNQAPIPLTTEEMDFVFGLYYARVPHPKYGDAKIPAYDMIKTS | soluble |
| MGSDKIHHHHHHMTTHTKPGLRPANPNFSSGPCAKRPGWSVEALKNAALGRSHRAKIGKTKLEQAIELTREILQVPADHRIGIVPASDTGAVEMALWSLLGERGVDMVAWESFGSGWVTDVVKQLKLPDVRKLEAGYGELPDLAKIDFDRDVVFTWNGTTSGVRVPNGDFIPADRKGLTICDATSAAFAQRLDFEKLDVVTFSWQKVLGGEGAHGMLILSPRAVARLESYKPAWPLPKIFRLTSGGKLIEGIFKGETINTPSMLCVEDYLDALHWAKSIGGLDVLVARADANAAVLDGFVDKSSWLGHLAVQPATRSNTSVCLSFTDPDVAALDADGQATFAKGLVSALDKEGVAYDIGSYRDAPPGLRIWCGATVETSDLETLLPWLDWAFAAQKASLKAAA | not soluble |
